These results are taken from doi:10.1101/854158 (bioRxiv, 2019).

In general, stoichiometry N refers to the number of molecules, sites or subunits per partner or assembly.

To fix the notation:
B1: FANCA (natural protein)
chain: MSDSWVPNSASGQDPGGRRRAWAELLAGRVKREKYNPERAQKLKESAVRLLRSHQDLNALLLEVEGPLCKKLSLSKVIDCDSSEAYANHSSSFIGSALQDQASRLGVPVGILSAGMVASSVGQICTAPAETSHPVLLTVEQRKKLSSLLEFAQYLLAHSMFSRLSFCQELWKIQSSLLLEAVWHLHVQGIVSLQELLESHPDMHAVGSWLFRNLCCLCEQMEASCQHADVARAMLSDFVQMFVLRGFQKNSDLRRTVEPEKMPQVTVDVLQRMLIFALDALAAGVQEESSTHKIVRCWFGVFSGHTLGSVISTDPLKRFFSHTLTQILTHSPVLKASDAVQMQREWSFARTHPLLTSLYRRLFVMLSAEELVGHLQEVLETQEVHWQRVLSFVSALVVCFPEAQQLLEDWVARLMAQAFESCQLDSMVTAFLVVRQAALEGPSAFLSYADWFKASFGSTRGYHGCSKKALVFLFTFLSELVPFESPRYLQVHILHPPLVPGKYRSLLTDYISLAKTRLADLKVSIENMGLYEDLSSAGDITEPHSQALQDVEKAIMVFEHTGNIPVTVMEASIFRRPYYVSHFLPALLTPRVLPKVPDSRVAFIESLKRADKIPPSLYSTYCQACSAAEEKPEDAALGVRAEPNSAEEPLGQLTAALGELRASMTDPSQRDVISAQVAVISERLRAVLGHNEDDSSVEISKIQLSINTPRLEPREHMAVDLLLTSFCQNLMAASSVAPPERQGPWAALFVRTMCGRVLPAVLTRLCQLLRHQGPSLSAPHVLGLAALAVHLGESRSALPEVDVGPPAPGAGLPVPALFDSLLTCRTRDSLFFCLKFCTAAISYSLCKFSSQSRDTLCSCLSPGLIKKFQFLMFRLFSEARQPLSEEDVASLSWRPLHLPSADWQRAALSLWTHRTFREVLKEEDVHLTYQDWLHLELEIQPEADALSDTERQDFHQWAIHEHFLPESSASGGCDGDLQAACTILVNALMDFHQSSRSYDHSENSDLVFGGRTGNEDIISRLQEMVADLELQQDLIVPLGHTPSQEHFLFEIFRRRLQALTSGWSVAASLQRQRELLMYKRILLRLPSSVLCGSSFQAEQPITARCEQFFHLVNSEMRNFCSHGGALTQDITAHFFRGLLNACLRSRDPSLMVDFILAKCQTKCPLILTSALVWWPSLEPVLLCRWRRHCQSPLPRELQKLQEGRQFASDFLSPEAASPAPNPDWLSAAALHFAIQQVREENIRKQLKKLDCEREELLVFLFFFSLMGLLSSHLTSNSTTDLPKAFHVCAAILECLEKRKISWLALFQLTESDLRLGRLLLRVAPDQHTRLLPFAFYSLLSYFHEDAAIREEAFLHVAVDMYLKLVQLFVAGDTSTVSPPAGRSLELKGQGNPVELITKARLFLLQLIPRCPKKSFSHVAELLADRGDCDPEVSAALQSRQQAAPDADLSQEPHLF

What all share (assay): cryo-EM structure
The data set “cryo-EM structure” deals with the molecule itself.
For the data set “FANCA”, the target named is B1.
The target of another data set is T1, FANCC (human, UniProt Q00597 1-558).
T1 sequence: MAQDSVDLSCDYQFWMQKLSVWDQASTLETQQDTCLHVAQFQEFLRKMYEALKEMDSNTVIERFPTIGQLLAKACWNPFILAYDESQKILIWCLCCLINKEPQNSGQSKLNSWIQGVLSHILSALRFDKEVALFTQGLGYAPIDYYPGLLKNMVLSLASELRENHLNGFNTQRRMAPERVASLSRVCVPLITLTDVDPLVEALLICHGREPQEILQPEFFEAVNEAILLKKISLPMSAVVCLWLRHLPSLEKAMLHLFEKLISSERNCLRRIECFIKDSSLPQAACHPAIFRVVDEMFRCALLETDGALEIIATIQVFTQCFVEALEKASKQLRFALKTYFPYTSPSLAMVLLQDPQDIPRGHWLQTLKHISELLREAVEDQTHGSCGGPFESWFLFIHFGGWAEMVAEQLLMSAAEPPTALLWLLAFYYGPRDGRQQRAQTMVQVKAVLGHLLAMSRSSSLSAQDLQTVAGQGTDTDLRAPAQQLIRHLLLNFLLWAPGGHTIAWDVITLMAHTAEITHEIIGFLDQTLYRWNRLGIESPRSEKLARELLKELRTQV

In the case of B1, in “cryo-EM structure”, the “stoichiometry N” value amounted to 2.

B2: FAAP100 (natural protein)
chain: MAGAAPRVRYLAGFCCPLGGLAAGKPRVLCHEAEVFLSTGSELVYVYDQEGGLLTAAFRFPDQVWHLELLAPRRLLYALCARRGLYCLSLDHPGRSRSTSQDDRDSEDGDQPSPVIPVDPDACILPDAALCAFTLLDSVLVTLVQGPARWKMQLFEQPCPGEDPRPGGQIGEVELSSYTPPAGVPGKPAAPHFLPVLCSVSPSGSRVPHDLLGGSGGFTLEDALFGLLFGADATLLQSPVVLCGLPDGQLCCVILKALVTSRSAPGDPNALVKILHHLEEPVIFIGALKTEPQAAEAAENFLPDEDVHCDCLVAFGHHGRMLAIKASWDESGKLVPELREYCLPGPVLCAACGGGGRVYHSTPSDLCVVDLSRGSTPLGPEQPEEGPGGLPPMLCPASLNICSVVSLSASPRTHEGGTKLLALSAKGRLMTCSLDLDSEMPGPARMTTESAGQKIKELLSGIGNISERVSFLKKAVDQRNKALTSLNEAMNVSCALLSSGTGPRPISCTTSTTWSRLQTQDVLMATCVLENSSSFSLDQGWTLCIQVLTSSCALDLDSACSAITYTIPVDQLGPGARREVTLPLGPGENGGLDLPVTVSCTLFYSLREVVGGALAPSDSEDPFLDECPSDVLPEQEGVCLPLSRHTVDMLQCLRFPGLAPPHTRAPSPLGPTRDPVATFLETCREPGSQPAGPASLRAEYLPPSVASIKVSAELLRAALKDGHSGVPLCCATLQWLLAENAAVDVVRARALSSIQGVAPDGANVHLIVREVAMTDLCPAGPIQAVEIQVESSSLADICRAHHAVVGRMQTMVTEQATQGSSAPDLRVQYLRQIHANHETLLREVQTLRDRLCTEDEASSCATAQRLLQVYRQLRHPSLILL
For B2, the binding result with FANCA is given as “binds”.

B3: FANCE (natural protein)
chain: MATPDAGLPGAEGVEPAPWAQLEAPARLLLQALQAGPEGARRGLGVLRALGSRGWEPFDWGRLLEALCREEPVVQGPDGRLELKPLLLRLPRICQRNLMSLLMAVRPSLPESGLLSVLQIAQQDLAPDPDAWLRALGELLRRDLGVGTSMEGASPLSERCQRQLQSLCRGLGLGGRRLKSPQAPDPEEEENRDSQQPGKRRKDSEEEAASPEGKRVPKRLRCWEEEEDHEKERPEHKSLESLADGGSASPIKDQPVMAVKTGEDGSNLDDAKGLAESLELPKAIQDQLPRLQQLLKTLEEGLEGLEDAPPVELQLLHECSPSQMDLLCAQLQLPQLSDLGLLRLCTWLLALSPDLSLSNATVLTRSLFLGRILSLTSSASRLLTTALTSFCAKYTYPVCSALLDPVLQAPGTGPAQTELLCCLVKMESLEPDAQVLMLGQILELPWKEETFLVLQSLLERQVEMTPEKFSVLMEKLCKKGLAATTSMAYAKLMLTVMTKYQANITETQRLGLAMALEPNTTFLRKSLKAALKHLGP
Consider B3, for which the binding result with FANCC is listed as “binds”.

B4: FANCB (natural protein)
chain: MTSKQAMSSNEQERLLCYNGEVLVFQLSKGNFADKEPTKTPILHVRRMVFDRGTKVFVQKSTGFFTIKEENSHLKIMCCNCVSDFRTGINLPYIVIEKNKKNNVFEYFLLILHSTNKFEMRLSFKLGYEMKDGLRVLNGPLILWRHVKAFFFISSQTGKVVSVSGNFSSIQWAGEIENLGMVLLGLKECCLSEEECTQEPSKSDYAIWNTKFCVYSLESQEVLSDIYIIPPAYSSVVTYVHICATEIIKNQLRISLIALTRKNQLISFQNGTPKNVCQLPFGDPCAVQLMDSGGGNLFFVVSFISNNACAVWKESFQVAAKWEKLSLVLIDDFIGSGTEQVLLLFKDSLNSDCLTSFKITDLGKINYSSEPSDCNEDDLFEDKQENRYLVVPPLETGLKVCFSSFRELRQHLLLKEKIISKSYKALINLVQGKDDNTSSAEEKECLVPLCGEEENSVHILDEKLSDNFQDSEQLVEKIWYRVIDDSLVVGVKTTSSLKLSLNDVTLSLLMDQAHDSRFRLLKCQNRVIKLSTNPFPAPYLMPCEIGLEAKRVTLTPDSKKEESFVCEHPSKKECVQIITAVTSLSPLLTFSKFCCTVLLQIMERESGNCPKDRYVVCGRVFLSLEDLSTGKYLLTFPKKKPIEHMEDLFALLAAFHKSCFQITSPGYALNSMKVWLLEHMKCEIIKEFPEVYFCERPGSFYGTLFTWKQRTPFEGILIIYSRNQTVMFQCLHNLIRILPINCFLKNLKSGSENFLIDNMAFTLEKELVTLSSLSSAIAKHESNFMQRCEVSKGKSSVVAAALSDRRENIHPYRKELQREKKKMLQTNLKVSGALYREITLKVAEVQLKSDFAAQKLSNL
For B4, the binding result with FANCA and in “cryo-EM structure” was “binds” throughout.
